Source: paper PMC5876120 (2019)

B1: Caspr2 ECD (protein)
chain: APSTSQKCDEPLVSGLPHVAFSSSSSISGSYSPGYAKINKRGGAGGWSPSDSDHYQWLQVDFGNRKQISAIATQGRYSSSDWVTQYRMLYSDTGRNWKPYHQDGNIWAFPGNINSDGVVRHELQHPIIARYVRIVPLDWNGEGRIGLRIEVYGCSYWADVINFDGHVVLPYRFRNKKMKTLKDVIALNFKTSESEGVILHGEGQQGDYITLELKKAKLVLSLNLGSNQLGPIYGHTSVMTGSLLDDHHWHSVVIERQGRSINLTLDRSMQHFRTNGEFDYLDLDYEITFGGIPFSGKPSSSSRKNFKGCMESINYNGVNITDLARRKKLEPSNVGNLSFSCVEPYTVPVFFNATSYLEVPGRLNQDLFSVSFQFRTWNPNGLLVFSHFADNLGNVEIDLTESKVGVHINITQTKMSQIDISSGSGLNDGQWHEVRFLAKENFAILTIDGDEASAVRTNSPLQVKTGEKYFFGGFLNQMNNSSHSVLQPSFQGCMQLIQVDDQLVNLYEVAQRKPGSFANVSIDMCAIIDRCVPNHCEHGGKCSQTWDSFKCTCDETGYSGATCHNSIYEPSCEAYKHLGQTSNYYWIDPDGSGPLGPLKVYCNMTEDKVWTIVSHDLQMQTPVVGYNPEKYSVTQLVYSASMDQISAITDSAEYCEQYVSYFCKMSRLLNTPDGSPYTWWVGKANEKHYYWGGSGPGIQKCACGIERNCTDPKYYCNCDADYKQWRKDAGFLSYKDHLPVSQVVVGDTDRQGSEAKLSVGPLRCQGDRNYWNAASFPNPSSYLHFSTFQGETSADISFYFKTLTPWGVFLENMGKEDFIKLELKSATEVSFSFDVGNGPVEIVVRSPTPLNDDQWHRVTAERNVKQASLQVDRLPQQIRKAPTEGHTRLELYSQLFVGGAGGQQGFLGCIRSLRMNGVTLDLEERAKVTSGFISGCSGHCTSYGTNCENGGKCLERYHGYSCDCSNTAYDGTFCNKDVGAFFEEGMWLRYNFQAPATNARDSSSRVDNAPDQQNSHPDLAQEEIRFSFSTTKAPCILLYISSFTTDFLAVLVKPTGSLQIRYNLGGTREPYNIDVDHRNMANGQPHSVNITRHEKTIFLKLDHYPSVSYHLPSSSDTLFNSPKSLFLGKVIETGKIDQEIHKYNTPGFTGCLSRVQFNQIAPLKAALRQTNASAHVHIQGELVESNCGASPLTLSPMSSATDPWHLDHLDSASADFPYNPGQGQAIRNGVNRNSA
B2: contactin-2 ECD (protein)
chain: SQTTFGPVFEDQPLSVLFPEESTEEQVLLACRARASPPATYRWKMNGTEMKLEPGSRHQLVGGNLVIMNPTKAQDAGVYQCLASNPVGTVVSREAILRFGFLQEFSKEERDPVKAHEGWGVMLPCNPPAHYPGLSYRWLLNEFPNFIPTDGRHFVSQTTGNLYIARTNASDLGNYSCLATSHMDFSTKSVFSKFAQLNLAAEDTRLFAPSIKARFPAETYALVGQQVTLECFAFGNPVPRIKWRKVDGSLSPQWTTAEPTLQIPSVSFEDEGTYECEAENSKGRDTVQGRIIVQAQPEWLKVISDTEADIGSNLRWGCAAAGKPRPTVRWLRNGEPLASQNRVEVLAGDLRFSKLSLEDSGMYQCVAENKHGTIYASAELAVQALAPDFRLNPVRRLIPAARGGEILIPCQPRAAPKAVVLWSKGTEILVNSSRVTVTPDGTLIIRNISRSDEGKYTCFAENFMGKANSTGILSVRDATKITLAPSSADINLGDNLTLQCHASHDPTMDLTFTWTLDDFPIDFDKPGGHYRRTNVKETIGDLTILNAQLRHGGKYTCMAQTVVDSASKEATVLVRGPPGPPGGVVVRDIGDTTIQLSWSRGFDNHSPIAKYTLQARTPPAGKWKQVRTNPANIEGNAETAQVLGLTPWMDYEFRVIASNILGTGEPSGPSSKIRTREAAPSVAPSGLSGGGGAPGELIVNWTPMSREYQNGDGFGYLLSFRRQGSTHWQTARVPGADAQYFVYSNESVRPYTPFEVKIRSYNRRGDGPESLTALVYSAEEEPRVAPTKVWAKGVSSSEMNVTWEPVQQDMNGILLGYEIRYWKAGDKEAAADRVRTAGLDTSARVSGLHPNTKYHVTVRAYNRAGTGPASPSANATTMKPPPRRPPGNISWTFSSSSLSIKWDPVVPFRNESAVTGYKMLYQNDLHLTPTLHLTGKNWIEIPVPEDIGHALVQIRTTGPGGDGIPAEVHIVRNGGTSMMVEN

Key:
[1] = biological target: B2; experiment: solid phase binding assay
[2] = biological target: B1; experiment: solid phase binding assay

A Kd [1] of 12 nM was found for B1 in this work.

A Kd [2] of 15 nM was found for B2 in this work.
